The experiment addresses Biotinylated RpoS (S. Typhimurium ATCC 14028S, UniProt D0ZVL4 1-330, biotin (EZ-Link-Biotin; sites not stated)). The experiment is described as follows: BLI. In general terms: Biolayer interferometry detects binding as a change in optical thickness at a sensor tip.

Sequence of Biotinylated RpoS (D0ZVL4 whole entry): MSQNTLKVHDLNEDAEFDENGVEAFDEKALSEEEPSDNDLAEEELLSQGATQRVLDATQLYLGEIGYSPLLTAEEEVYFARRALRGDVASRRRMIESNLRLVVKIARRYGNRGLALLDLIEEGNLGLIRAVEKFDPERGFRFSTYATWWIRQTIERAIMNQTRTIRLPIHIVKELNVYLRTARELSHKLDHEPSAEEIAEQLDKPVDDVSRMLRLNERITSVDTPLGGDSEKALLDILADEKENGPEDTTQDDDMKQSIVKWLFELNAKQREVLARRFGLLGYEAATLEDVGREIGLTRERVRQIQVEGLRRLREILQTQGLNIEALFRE

B1: MicN (purified, His-tag cleaved) (natural protein, S. Typhimurium ATCC 14028S)
chain: MKEGFYWIQHNGRVQVAYYTHGVTEDLETGQTIIGVWHLTQGDDICHNGEAEILAGPLEPPI
As for B1, binding was put at a Kd of 43.6 nM.

Usually Kd stands for the constant that tells how readily two partners part at equilibrium.

The record behind these values is paper PMC12549904 (Communications Biology, 2025).
